Data from article PMC4690014, “Functional Analysis of Cotton Leaf Curl Kokhran Virus/Cotton Leaf Curl Multan Betasatellite RNA Silencing Suppressors”.

What was measured:
TrAP (Trx-His fusion) = TrAP (Trx-His fusion) (Cotton leaf curl Kokhran virus, UniProt O72711 1-134); assay: EMSA; conditions: protein: recombinant; tags: N-terminal Trx-His (pET32a); label: 5'-32P
V2 (Trx-His fusion) = V2 (Trx-His fusion) (Cotton leaf curl Kokhran virus, UniProt Q6JIB8 1-118); assay: EMSA; conditions: protein: recombinant; tags: N-terminal Trx-His (pET32a); label: 5'-32P

Row | Binder | binding result (TrAP (Trx-His fusion)) | binding result (V2 (Trx-His fusion))
1 | AGAGTGCCATGCCCGAAGGTT (ssDNA) [21 nt ssDNA] | binds | 
2 | AGAGUGCCAUGCCCGAAGGUU (ssRNA) [21 nt ssRNA] | binds | 
3 | 69 nt ssDNA (SalI-XbaI-HA-Tag oligo, by length) (ssDNA) DNA: GCGTCGACGTCTTGCTCTAGAGATGTATCCATATGATGTTCCGGATTACGCGGAACGAGCTATACAAGG | binds | binds
4 | AGAGUGCCAUGCCCGAAGGUUAUU (ssRNA) [24 nt ssRNA] | binds | 
